From patent publication US20230220589A1

What was measured:
[1] = target: M44-modified H NTAA target peptides; assay: encoding assay; P2 T;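 note: fraction of recording tags encoded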
[2] = target: M44-modified D NTAA target peptides; assay: encoding assay; P2 T;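 note: fraction of recording tags encoded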
[3] = target: M44-modified W NTAA target peptides; assay: encoding assay; P2 T;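 note: fraction of recording tags encoded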
[4] = target: M44-modified S NTAA target peptides; assay: encoding assay; P2 T
[5] = target: M44-modified L NTAA target peptides (M44-L-P2-peptide); assay: Gini coefficient of P2 tolerance from multiplex encoding heatmap
[6] = target: M44-modified L NTAA target peptides (M44-L-P2-peptide); assay: encoding assay; P2 V;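 note: fraction of recording tags encoded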
[7] = target: M44-modified H NTAA target peptides; assay: encoding assay; P2 V
[8] = target: M44-modified F NTAA target peptides (M44-F-P2-peptide); assay: encoding assay; P2 V;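 note: fraction of recording tags encoded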
[9] = target: M44-modified A NTAA target peptides (M44-A-P2-peptide); assay: encoding assay; P2 V
[10] = target: M44-modified D NTAA target peptides; assay: encoding assay; P2 V;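 note: fraction of recording tags encoded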
[11] = target: M44-modified T NTAA target peptides; assay: encoding assay; P2 V
[12] = target: M44-modified I NTAA target peptides (M44-I-P2-peptide); assay: encoding assay; P2 V
[13] = target: M44-modified P NTAA target peptides; assay: encoding assay; P2 V;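 note: fraction of recording tags encoded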
[14] = target: M44-modified W NTAA target peptides; assay: encoding assay; P2 V;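 note: fraction of recording tags encoded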
[15] = target: M44-modified S NTAA target peptides; assay: encoding assay; P2 V
[16] = target: M44-modified N NTAA target peptides; assay: encoding assay; P2 V
[17] = target: M44-modified M NTAA target peptides; assay: encoding assay; P2 V
[18] = target: M44-modified Q NTAA target peptides; assay: encoding assay; P2 V
[19] = target: M44-modified Y NTAA target peptides (M44-Y-P2-peptide); assay: encoding assay; P2 V;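 note: fraction of recording tags encoded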
[20] = target: M44-modified L NTAA target peptides (M44-L-P2-peptide); assay: Gini coefficient of P1 selectivity from multiplex encoding heatmap
[21] = target: M44-modified L NTAA target peptides (M44-L-P2-peptide); assay: encoding assay; P2 S;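 note: fraction of recording tags encoded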
[22] = target: M44-modified H NTAA target peptides; assay: encoding assay; P2 S
[23] = target: M44-modified F NTAA target peptides (M44-F-P2-peptide); assay: encoding assay; P2 S;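 note: fraction of recording tags encoded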
[24] = target: M44-modified A NTAA target peptides (M44-A-P2-peptide); assay: encoding assay; P2 S
[25] = target: M44-modified G NTAA target peptides (M44-G-P2-peptide); assay: encoding assay; P2 S;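 note: fraction of recording tags encoded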
[26] = target: M44-modified T NTAA target peptides; assay: encoding assay; P2 S
[27] = target: M44-modified V NTAA target peptides; assay: encoding assay; P2 S;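 note: fraction of recording tags encoded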
[28] = target: M44-modified I NTAA target peptides (M44-I-P2-peptide); assay: encoding assay; P2 S
[29] = target: M44-modified M NTAA target peptides; assay: encoding assay; P2 S
[30] = target: M44-modified Q NTAA target peptides; assay: encoding assay; P2 S
[31] = target: M44-modified Y NTAA target peptides (M44-Y-P2-peptide); assay: encoding assay; P2 S;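 note: fraction of recording tags encoded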
[32] = target: M17-modified V NTAA target peptides; assay: encoding assay; P2 T;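 note: fraction of recording tags encoded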
[33] = target: M17-modified D NTAA target peptides; assay: encoding assay; P2 T;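 note: fraction of recording tags encoded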
[34] = target: M17-modified P NTAA target peptides; assay: encoding assay; P2 T;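 note: fraction of recording tags encoded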
[35] = target: M17-modified L NTAA target peptides; assay: encoding assay; P2 T;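 note: fraction of recording tags encoded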
[36] = target: M17-modified N NTAA target peptides; assay: encoding assay; P2 T;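 note: fraction of recording tags encoded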
[37] = target: M17-modified I NTAA target peptides; assay: encoding assay; P2 T;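 note: fraction of recording tags encoded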
[38] = target: M17-modified W NTAA target peptides; assay: encoding assay; P2 T;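 note: fraction of recording tags encoded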
[39] = target: M17-modified A NTAA target peptides; assay: encoding assay; P2 T;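 note: fraction of recording tags encoded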
[40] = target: M17-modified Y NTAA target peptides (M17-Y-P2-peptide); assay: encoding assay; P2 T;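 note: fraction of recording tags encoded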
[41] = target: M17-modified E NTAA target peptides; assay: encoding assay; P2 T;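 note: fraction of recording tags encoded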
[42] = target: M17-modified S NTAA target peptides; assay: encoding assay; P2 T;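 note: fraction of recording tags encoded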
[43] = target: M17-modified H NTAA target peptides; assay: encoding assay; P2 T;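 note: fraction of recording tags encoded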
[44] = target: M17-modified Q NTAA target peptides; assay: encoding assay; P2 T;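 note: fraction of recording tags encoded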
[45] = target: M17-modified M NTAA target peptides; assay: encoding assay; P2 T;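 note: fraction of recording tags encoded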
[46] = target: M17-modified F NTAA target peptides; assay: encoding assay; P2 T;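 note: fraction of recording tags encoded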
[47] = target: M17-modified T NTAA target peptides; assay: encoding assay; P2 T;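 note: fraction of recording tags encoded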
[48] = target: M17-modified G NTAA target peptides; assay: encoding assay; P2 T;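 note: fraction of recording tags encoded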
[49] = target: M17-modified Y NTAA target peptides (M17-Y-P2-peptide); assay: Gini coefficient of P2 tolerance from multiplex encoding heatmap
[50] = target: M17-modified Y NTAA target peptides (M17-Y-P2-peptide); assay: Gini coefficient of P1 selectivity from multiplex encoding heatmap
[51] = target: M17-modified I NTAA target peptides; assay: encoding assay; P2 G;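 note: fraction of recording tags encoded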

B1: engineered M44-L binder (SEQ ID NO: 31) (designed binder, not shown: small tags and cut ends; large carriers)
chain: QDSTQNLIPAPPLISVPLQPGFWTERFQGRWFLVGFAGNAVQKERQSRLTMQSLILELQEDNSYNITAINVRGQGCRYIISTLVPSSRPGQFTLGNIHSYPQIQSLDVQVADTDYDQFAMVFLQGTSENKQYFEVALAGRTKGLSDELKERFVSFAKSLGLKDNNIVFSVPTDQCIDN
encoding yield [1]: 0.02 | encoding yield [2]: 0.01 | encoding yield [3]: 0.01 | encoding yield [4]: 0.01 | P2 score [5]: 0.331 | encoding yield [6]: 0.18 | encoding yield [7]: 0.04 | encoding yield [8]: 0.19 | encoding yield [9]: 0.04 | encoding yield [10]: 0.03 | encoding yield [11]: 0.03 | encoding yield [12]: 0.09 | encoding yield [13]: 0.02 | encoding yield [14]: 0.1 | encoding yield [15]: 0.04 | encoding yield [16]: 0.05 | encoding yield [17]: 0.05 | encoding yield [18]: 0.02 | encoding yield [19]: 0.07 | P1 score [20]: 0.332 | encoding yield [21]: 0.15 | encoding yield [22]: 0.03 | encoding yield [23]: 0.06 | encoding yield [24]: 0.02 | encoding yield [25]: 0.04 | encoding yield [26]: 0.03 | encoding yield [27]: 0.03 | encoding yield [28]: 0.07 | encoding yield [29]: 0.07 | encoding yield [30]: 0.02 | encoding yield [31]: 0.07

B2: engineered M17-Y binder (SEQ ID NO: 61) (designed binder, not shown: small tags and cut ends; large carriers)
chain: TVPDRSEIAGKWYVVALASNTEFYLREKDWVKSAMARISFLGEDELKVSSAVPSPNGCYKVERTWKKTSDDGEVYNSRAAKLKVEVLDTDYKSYAVIYATRVKDGRTDHQMILYSRSPEVSPAATAIFRKLAGERNYTDEMVAMLPRQEECTVDEV
encoding yield [32]: 0.03 | encoding yield [33]: 0.01 | encoding yield [34]: 0.01 | encoding yield [35]: 0.04 | encoding yield [36]: 0.02 | encoding yield [37]: 0.06 | encoding yield [38]: 0.01 | encoding yield [39]: 0.03 | encoding yield [40]: 0.14 | encoding yield [41]: 0.01 | encoding yield [42]: 0.01 | encoding yield [43]: 0.01 | encoding yield [44]: 0.03 | encoding yield [45]: 0.01 | encoding yield [46]: 0.06 | encoding yield [47]: 0.02 | encoding yield [48]: 0.04 | P2 score [49]: 0.225 | P1 score [50]: 0.196 | encoding yield [51]: 0.03

B3: upgraded binder after additional maturation round (SEQ ID NO: 62) (designed binder, not shown: small tags and cut ends; large carriers)
chain: TVPDRSEIAGKWYVVALASNTEFYLRGKDRVKSAMVRISFQGEDELKVSSAVPSPNGCYKVERTWKKTSDDGEVYNSRAAKLKVEVLDTDYKSYAVIYATRVKDRRTDHQMILYSRSPDVSPAATAIFRKLAGERNYTDEMVAMLPRQEECTVDEV
encoding yield [32]: 0.05 | encoding yield [33]: 0.02 | encoding yield [34]: 0.01 | encoding yield [35]: 0.08 | encoding yield [36]: 0.02 | encoding yield [37]: 0.1 | encoding yield [38]: 0.02 | encoding yield [39]: 0.02 | encoding yield [40]: 0.24 | encoding yield [41]: 0.02 | encoding yield [42]: 0.01 | encoding yield [43]: 0.02 | encoding yield [44]: 0.02 | encoding yield [45]: 0.02 | encoding yield [46]: 0.08 | encoding yield [47]: 0.04 | encoding yield [48]: 0.05 | P2 score [49]: 0.128 | P1 score [50]: 0.204 | encoding yield [51]: 0.05

B4: engineered M44-A binder (SEQ ID NO: 42) (designed binder, not shown: small tags and cut ends; large carriers)
chain: QVSVQPNFQQDKFLGRWFVAGLASNSSWDREKVAALSGAKMVVAPATDGGLNVTRTMLRKNQCETYTGLLQPAGSLGSYSWRSPHPGSTGSESVVETDYDQYALVYGQGSKGPGEDLRAAALWSRTQTPRAELKEKFTAFSKAQGFTEDTIVFLPQTDKCMTEQ
encoding yield [1]: 0.01 | encoding yield [2]: 0.02 | encoding yield [3]: 0.01 | encoding yield [4]: 0.01 | encoding yield [6]: 0.04 | encoding yield [7]: 0.05 | encoding yield [8]: 0.09 | encoding yield [9]: 0.17 | encoding yield [10]: 0.03 | encoding yield [11]: 0.12 | encoding yield [12]: 0.05 | encoding yield [13]: 0.04 | encoding yield [14]: 0.06 | encoding yield [15]: 0.05 | encoding yield [16]: 0.04 | encoding yield [17]: 0.04 | encoding yield [18]: 0.04 | encoding yield [19]: 0.06 | encoding yield [21]: 0.05 | encoding yield [22]: 0.01 | encoding yield [23]: 0.03 | encoding yield [24]: 0.1 | encoding yield [25]: 0.05 | encoding yield [26]: 0.06 | encoding yield [27]: 0.03 | encoding yield [28]: 0.03 | encoding yield [29]: 0.05 | encoding yield [30]: 0.03 | encoding yield [31]: 0.06

B5: engineered M44-L binder (SEQ ID NO: 21) (designed binder, not shown: small tags and cut ends; large carriers)
chain: QVSVQPNFQQDKFLGRWFYAGHASNSSWYREKVAALSMAKLVVAPATDGGLNATETFLRKNQCETITSLLQPAGSLGSYSSRSPHGGSTWSTSVVETDYDQYALLYLQGSKGPGEDFRGAILASRTQTPRAELKEKFTAFSKAQGFTEDTIVFLPQTDKCMTEQ
P2 score [5]: 0.408 | encoding yield [6]: 0.09 | encoding yield [7]: 0.01 | encoding yield [8]: 0.04 | encoding yield [9]: 0.01 | encoding yield [10]: 0.01 | encoding yield [11]: 0.01 | encoding yield [12]: 0.09 | encoding yield [13]: 0.01 | encoding yield [14]: 0.02 | encoding yield [15]: 0.01 | encoding yield [16]: 0.01 | encoding yield [17]: 0.08 | encoding yield [18]: 0.01 | encoding yield [19]: 0.02 | P1 score [20]: 0.412 | encoding yield [21]: 0.27 | encoding yield [22]: 0.01 | encoding yield [23]: 0.07 | encoding yield [24]: 0.01 | encoding yield [25]: 0.01 | encoding yield [26]: 0.01 | encoding yield [27]: 0.04 | encoding yield [28]: 0.18 | encoding yield [29]: 0.07 | encoding yield [30]: 0.01 | encoding yield [31]: 0.04
